In patent US20240262917A1, “ANTIBODIES AGAINST ALK AND METHODS OF USE THEREOF” (Dana-Farber Cancer Institute, Inc., priority 2021, published 2024):
“Also recorded” adds a separate entry of the source.

Legend:
ALK [1] = test: Western blot analysis of ALK in cell lysates and conditioned media; type: binding, human
From the text: (§1) (A) Western blot analysis of ALK in Kelly and SHEP neuroblastoma cells overexpressing GFP and mutated ALK using the mAb-7 and 8G7 anti-ALK antibodies. The mAb-7 antibody was developed at the Vigny laboratory (INSERM, Unité 706/Université Pierre et Marie Curie, Paris F-75005, France) (Moog-Lutz et al, 2005; PMID: 15886198) and obtained through a Materials Transfer Agreement. (B) Western blot analysis of ALK expression in various non-neuroblastoma cell lines: H1373 (human […]), HeLa (cervical cancer), NIH-3T3 (transformed mouse fibroblast cells) using 8G7 and C26G7 (rabbit monoclonal C-terminal anti-ALK antibody; Cell Signaling Technology; Cat #3333; RRID:AB_836862) anti-ALK antibodies.
(§2) The three HPLC-purified monoclonal antibodies (5H3, 7F7 and 8G7) all of the IgG1 subtype, were tested for their ability to bind to ALK in neuroblastoma cells expressing ALK. Both cell lysates and supernatants from cells grown with and without serum (to increase the expression of ALK) were tested by western blotting. […] (A) Western blot analysis of the indicated hybridoma clones in neuroblastoma cell lines expressing WT (NGP) and mutated (SHSY5Y, Kelly) ALK. NIH3T3 cells were used as controls. (B) Western blot analysis of conditioned media from NGP neuroblastoma and 293T cells engineered to express the WT ALK receptor, with the three ALK mAbs showing binding with the shed ALK extracellular domain. […]
Cell lysates were prepared in NP-40 buffer (Invitrogen) containing complete protease inhibitor (Roche), phosphatase inhibitor (Roche) and phenylmethylsulfonyl fluoride (PMSF). Lysates were incubated on ice for 20 min and centrifuged at 16,000 g for 15 min at 4° C. Protein concentrations of the supernatants were determined with the DC protein assay kit (Bio-Rad). Protein samples were denatured using NuPAGE LDS sample buffer (Invitrogen) and NuPAGE sample reducing agent (Invitrogen). Proteins were then separated on precast 4-12% Bis-Tris gels (Invitrogen) and transferred to nitrocellulose membranes (Bio-Rad). […]

full-length ALK receptor = biological target: T1, full-length ALK receptor (Homo sapiens, UniProt Q9UM73); test: Immunoprecipitation of ALK from neuroblastoma cell lysates; type: binding; conditions: immunoblotting with commercial anti-ALK C-terminal antibody
T1 construct: endogenous in cells
T1 sequence (Q9UM73 19-1620): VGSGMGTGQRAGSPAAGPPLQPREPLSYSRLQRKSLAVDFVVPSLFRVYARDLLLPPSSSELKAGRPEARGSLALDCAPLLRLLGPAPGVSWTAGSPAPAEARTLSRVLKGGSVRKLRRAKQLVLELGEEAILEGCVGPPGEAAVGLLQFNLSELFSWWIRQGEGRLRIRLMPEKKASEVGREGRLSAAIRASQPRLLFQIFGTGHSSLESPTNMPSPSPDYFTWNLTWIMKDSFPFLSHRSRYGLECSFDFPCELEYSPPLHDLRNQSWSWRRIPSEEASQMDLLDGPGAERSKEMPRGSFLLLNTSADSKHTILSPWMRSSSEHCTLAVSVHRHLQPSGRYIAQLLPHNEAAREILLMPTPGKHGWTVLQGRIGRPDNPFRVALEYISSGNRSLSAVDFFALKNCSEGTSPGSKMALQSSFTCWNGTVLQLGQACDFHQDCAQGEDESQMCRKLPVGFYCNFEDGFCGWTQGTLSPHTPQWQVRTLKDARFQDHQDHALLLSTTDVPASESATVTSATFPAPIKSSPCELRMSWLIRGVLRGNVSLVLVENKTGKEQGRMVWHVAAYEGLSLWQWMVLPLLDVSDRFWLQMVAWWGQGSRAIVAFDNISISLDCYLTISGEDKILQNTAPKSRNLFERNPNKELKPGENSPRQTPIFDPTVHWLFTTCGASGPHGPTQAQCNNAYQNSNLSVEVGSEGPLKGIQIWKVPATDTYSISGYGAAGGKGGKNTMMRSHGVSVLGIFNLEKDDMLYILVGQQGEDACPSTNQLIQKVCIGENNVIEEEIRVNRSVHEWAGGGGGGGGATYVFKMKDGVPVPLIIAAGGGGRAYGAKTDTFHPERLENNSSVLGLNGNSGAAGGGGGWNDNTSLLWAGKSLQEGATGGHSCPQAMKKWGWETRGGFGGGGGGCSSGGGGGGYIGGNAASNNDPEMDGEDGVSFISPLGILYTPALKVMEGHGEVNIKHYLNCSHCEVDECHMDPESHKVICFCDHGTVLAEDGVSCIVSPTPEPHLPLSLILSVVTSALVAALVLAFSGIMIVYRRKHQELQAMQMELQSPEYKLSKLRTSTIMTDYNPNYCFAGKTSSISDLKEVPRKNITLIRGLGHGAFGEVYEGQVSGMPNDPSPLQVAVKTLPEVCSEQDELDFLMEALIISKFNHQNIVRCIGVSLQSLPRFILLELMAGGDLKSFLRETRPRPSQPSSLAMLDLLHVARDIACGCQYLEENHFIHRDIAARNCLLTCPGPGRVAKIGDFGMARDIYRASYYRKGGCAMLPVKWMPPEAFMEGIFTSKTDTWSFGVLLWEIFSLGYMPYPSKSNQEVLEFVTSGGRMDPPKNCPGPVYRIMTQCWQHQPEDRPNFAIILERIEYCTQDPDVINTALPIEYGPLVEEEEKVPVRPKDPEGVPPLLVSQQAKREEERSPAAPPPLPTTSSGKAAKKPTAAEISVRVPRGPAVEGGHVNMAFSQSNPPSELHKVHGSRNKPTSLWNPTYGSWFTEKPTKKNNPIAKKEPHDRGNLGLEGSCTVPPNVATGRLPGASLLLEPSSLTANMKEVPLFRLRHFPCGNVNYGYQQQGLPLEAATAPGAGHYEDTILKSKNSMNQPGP
From the text: Cell lysates from the indicated neuroblastoma cell lines were subjected to immunoprecipitation (IP) using 8G7 and subsequently to immunoblotting analysis using the commercial anti-ALK C-terminal antibody.

ALK [2] = biological target: ALK (Homo sapiens, UniProt Q9UM73); test: Western blot analysis of ALK in cell lysates and conditioned media; type: binding; set-up: endogenous in cells; host or cells: human neuroblastoma lines (NGP, SH-SY5Y, Kelly and others)
From the text: as §1, §2
Cell lysates were prepared in NP-40 buffer (Invitrogen) containing complete protease inhibitor (Roche), phosphatase inhibitor (Roche) and phenylmethylsulfonyl fluoride (PMSF). Lysates were incubated on ice for 20 min and centrifuged at 16,000 g for 15 min at 4° C. Protein concentrations of the supernatants were determined with the DC protein assay kit (Bio-Rad). Protein samples were denatured using NuPAGE LDS sample buffer (Invitrogen) and NuPAGE sample reducing agent (Invitrogen). Proteins were then separated on precast 4-12% Bis-Tris gels (Invitrogen) and transferred to nitrocellulose membranes (Bio-Rad). After blocking in blocking buffer (5% dry milk in TBS with 0.2% Tween-20), membranes were incubated with the primary antibody overnight at 4 °C, washed three times with TBST buffer, chemiluminescent detection performed with the appropriate secondary antibodies and developed using Genemate Blue ultra-autoradiography film (VWR).

ALK receptor = test: Immunocytochemistry and immunohistochemistry staining of ALK; type: binding; conditions: 293T and NB9464 cells expressing WT ALK; tumor tissue from ALK F1174L/MYCN transgenic mouse model
Sequence of ALK receptor (Q9UM73 19-1038 limits assumed): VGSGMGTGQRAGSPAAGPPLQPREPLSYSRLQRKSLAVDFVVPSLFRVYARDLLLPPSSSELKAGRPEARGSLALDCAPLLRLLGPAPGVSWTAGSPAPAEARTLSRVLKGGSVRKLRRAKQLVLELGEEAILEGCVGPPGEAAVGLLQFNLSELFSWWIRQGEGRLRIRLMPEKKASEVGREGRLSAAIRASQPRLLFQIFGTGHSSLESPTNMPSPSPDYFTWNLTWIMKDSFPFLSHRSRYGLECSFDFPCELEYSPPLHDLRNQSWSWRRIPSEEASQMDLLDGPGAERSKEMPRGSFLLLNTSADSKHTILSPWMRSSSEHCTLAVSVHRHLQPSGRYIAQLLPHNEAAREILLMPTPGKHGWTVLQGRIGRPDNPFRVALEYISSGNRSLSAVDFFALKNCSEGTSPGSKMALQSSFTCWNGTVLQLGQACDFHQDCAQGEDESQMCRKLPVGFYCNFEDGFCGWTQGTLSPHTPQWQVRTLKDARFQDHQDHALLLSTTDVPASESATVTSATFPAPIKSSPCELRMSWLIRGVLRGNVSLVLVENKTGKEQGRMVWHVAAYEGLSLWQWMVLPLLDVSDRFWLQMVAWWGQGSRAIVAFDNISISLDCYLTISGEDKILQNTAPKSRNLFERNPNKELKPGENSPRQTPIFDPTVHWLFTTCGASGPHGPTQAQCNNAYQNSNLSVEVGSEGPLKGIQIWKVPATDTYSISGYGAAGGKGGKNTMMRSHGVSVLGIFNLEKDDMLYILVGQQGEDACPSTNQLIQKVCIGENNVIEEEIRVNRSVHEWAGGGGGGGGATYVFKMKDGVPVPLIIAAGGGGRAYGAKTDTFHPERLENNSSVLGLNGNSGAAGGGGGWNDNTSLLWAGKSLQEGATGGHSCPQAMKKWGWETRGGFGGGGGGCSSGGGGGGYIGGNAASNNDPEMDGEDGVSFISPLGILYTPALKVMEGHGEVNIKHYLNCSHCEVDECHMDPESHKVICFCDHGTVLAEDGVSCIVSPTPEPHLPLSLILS
From the text: (A). Immunocytochemistry staining with the 8G7 antibody of 293T and NB9464 (mouse neuroblastoma cells derived from Th-MycN transgenic tumor model; Weiss et al, 1997) cells expressing a control vector or WT ALK. 5×10^6 cells were fixed in 10% formalin and images captured using a Zeiss AXIO Imager Z1 fluorescence microscope following staining. (B) Immunohistochemistry of tumor tissue from the ALK F1174L/MYCN transgenic mouse model using the 8G7 antibody.

B1: 8G7: murine monoclonal IgG1 anti-ALK antibody to the N-terminal ECD of human ALK; VH SEQ ID NO: 3, VL SEQ ID NO: 4 (antibody, V domains shown)
VH: QVQLQQSGAELVRPGASVTLSCKASGYTFTDYEMHWVKQTPVHGLEWIGAIDPETGGSAYNQKFKAKAILTADRSSSTAYMELRSLTSEDSAVYYCTRTRYYGSSPAMDYWGQGTSVTVSS
VL: DIQMTQTTSSLSASLGDRVTISCSASQGIGNYLNWYQQKPDGTVKLLIYYTSSLHSGVPSRFSGSGSGTDYSLTISNLEPEDIATYYCQQYSKLPYTFGGGTKLEIK
In the case of B1, the “recognition of ALK in immunoblotting assays” value (ALK [1]) is reported as “recognize ALK in immunoblotting assays”, the “specificity of ALK binding by western blot” value (ALK [1]; FIG. 15 and FIG. 25, compared with mAb-7 and C26G7 anti-ALK antibodies) is reported as “better specificity compared to commercial Abs; also recorded: binds specifically to the N-terminal region of the ALK protein” and the “immunoprecipitation of ALK” value (full-length ALK receptor) is reported as “can immunoprecipitate ALK; also recorded: immunoprecipitated only the full-length 220 kDa form of ALK”. The “ALK protein recognized by western blotting in cell lysates” value (ALK [2]; cell lysates of neuroblastoma cells expressing ALK) was “recognized a 220 kDa protein in the cell lysates of neuroblastoma cells; also recorded: detected the 220 kDa full-length protein but not the 140 kDa fragment in cell lysates”, the “ALK protein recognized by western blotting in media” value (ALK [2]; conditioned media of NB cells, shed ECD domain) was “an approximately 100 kDa protein in the media; also recorded: ALK fragment with a molecular mass of approximately 100 kDa was identified in the conditioned media of all five NB cell lines” and the “binding in immunocytochemistry and immunohistochemistry” value (ALK receptor) was “showed binding in engineered cells and transgenic mice tumors”.
